# Data taken from patent US20210292393A1 (published 2021).
# Substitutions are numbered along the chain they refer to.
# B1: antibody 291 (antibody, V domains shown)
# VH: QVQLVESGGGVVQPGRSLRLSCAASGFTFSSYAMHWVRQAPGKGLEWVAVISYDGSNKYYADSVKGRFTISRDNSKNTLYLQMNSLRAEDTAVYYCARASGGSYFGGMDVWGQGTTVTVSS
# VL: QSALTQPASVSGSPGQSITISCTGTSSDVGGYNYVSWYQQHPGKAPKLMIYEVSNRPSGVSNRFSGSKSGNTASLTISGLQAEDEADYYCSSYTSSSTLYVFGTGTKVTVL
# B2: antibody 258 (antibody, V domains shown)
# VH: QVQLQESGPGLVKPSETLSLTCTVSGGSISSYYWSWIRQPAGKGLEWIGRIYTSGSTNYNPSLKSRVTMSVDTSKNQFSLKLSSVTAADTAVYYCAAGYGSIDYWGQGTLVTVSS
# VL: not shown
# B3: antibody 476 (antibody, V domains shown)
# VH: QVQLVQSGSELKKPGASVKVSCKASGYTFTSYAMNWVRQAPGQGLEWMGWINTNTGNPTYAQGFTGRFVFSLDTSVSTAYLQISSLKAEDTGVYYCARDHELPNSSSWFGHFEYWGQGTLVTVSS
# VL: SYELTQPPSVSVSPGQTARITCSGDALPKQYAYWYQQKAGQAPVLVIYKDSERRSGIPERFSGSSSGTTVTLTISGVQAEDEADYYCQSADSSGTSVVFGGGTKLTVL
# B4: antibody 496 (antibody, V domains shown)
# VH: QVQLVQSGAEVKKPGASVKVSCKASGYTFTDYYIHWVRQAPGQGLEWMGWINPNSGGTNYAQKFQGRLTMTRDTSISTAYMELSRLRSDDTAVYYCARVYSMFREFIINPYYYYYGLDVWGQGTTVTVSS
# VL: QSALTQPASVSGSPRQSITISCTGTSSDVGSYNLVSWYQQHPGKAPKLMIYEGSKRPSGVSNRFSGSKSGNTASLAISGLQAEDEANYYCCSYAGSSTLVFGGGTKLTVL
# B5: antibody 504 (antibody, V domains shown)
# VH: QVQLVESGGGVVQPGRSLRLSCAASGFTFSSYGMHWVRQAPGKGLEWVAVISYDGSNKYYADSVKGRFTISRDNSKNTLYLQMNSLRAEDTAVYYCAKGGGGGYCSGGSCYSHYFDYWGQGTLVTVSS
# VL: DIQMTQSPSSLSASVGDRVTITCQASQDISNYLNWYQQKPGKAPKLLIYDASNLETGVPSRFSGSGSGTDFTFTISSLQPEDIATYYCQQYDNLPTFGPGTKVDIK
# B6: antibody 477 (antibody, V domains shown)
# VH: QVQLVESGGGVVQPGRSLRLSCAASGITFSSYAMHWVRQAPGKGLEWVAVISYDGSDKYHADSVKGRFAISRDNSKNTLYLQMNSLRAEDTAVYYCAKDKGIAVAGTGWIRPDPEYYFDYWGQGTLVTVSS
# VL: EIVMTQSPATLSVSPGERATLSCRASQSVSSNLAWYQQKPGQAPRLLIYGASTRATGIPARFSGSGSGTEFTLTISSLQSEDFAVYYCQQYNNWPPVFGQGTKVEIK
# B7: antibody 492 (antibody, V domains shown)
# VH: QVQLVESGGGVVQPGRSLRLSCAASGFTFSSYGMHWVRQAPGKGLEWVAVISYDGSNKYYADSVKGRFTISRDNSKNTLYLQMNSLRAEDTAVYYCAKDGILWWWWGYFDYWGQGTLVTVSS
# VL: QSVLTQPPSVSGAPGQRVTISCTGSSSNIGAGFDVHWYQQLPGTAPKLLIYGNSNRPSGVPDRFSGSKSGTSASLAITGLQAEDEADYYCQSYDSSLSVVFGGGTKLTVL
# B8: antibody 480 (antibody, V domains shown)
# VH: QVQLVESGGGVVQPGRSLRLSCAASGFTFSSYAMHWVRQAPGKGLEWVAVISYDGNNKYYADSVKGRFTISRDNSKNTLYLQMNSLRAEDTAVYYCVRTNSGSYYAAFDYWGQGTLVTVSS
# VL: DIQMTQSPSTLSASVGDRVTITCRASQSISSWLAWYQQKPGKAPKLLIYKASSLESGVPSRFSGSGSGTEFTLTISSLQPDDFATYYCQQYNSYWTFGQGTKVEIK
# B9: antibody 509 (antibody, V domains shown)
# VH: QVQLVESGGGVVQPGRSLRLSCAASGFNLSSYAMHWVRQASGKGLEWVSLISYDGSIKYYTDSVKGRFTVSGDNSKNTLFLQMNSLRADDSALYYCVRGGVSGPNSFDLWGQGTTVTVSS
# VL: DVVMTQSPLSLPVTLGQPASISCRSSQSLVYSDGNTYVNWFQQRPGQSPRRLIYKVSIRASGVPDRFSGSGSGTDFALKISRVEAEDVGVYYCMQGTHWPVTFGQGTKVEIK
# B10: antibody 497 (antibody, V domains shown)
# VH: QVQLQESGPGLVKPSQTLSLTCTVSGGSINSFGYYWSWIRQHPGKGLEWIGYIYYSGSTDYNPSLNSRVTISLDTSKNQFLLKLTSVTAADTAVYYCAKLTDYYDSSGYSFDYWGQGTLVTVSS
# VL: DIQMTQSPSSVSASVGDRVTITCRASQDISRWLAWYQQKPGKAPKLLIYAASSLQSGVPSRFSGRGSGTELTLTISSLQPEDFATYFCQQAYSFPFTFGGGTKVEIK
# B11: antibody 475 (antibody, V domains shown)
# VH: QVQLVESGGGVVQPGRSLRLSCAASGFTFSSYAMHWVRQAPGKGLEWVTFISHEGSNKYYADSVKGRFTISRDNSKNTLYLQMNSLRAEDTAVYYCARTFEYSSSSATGDFDYWGQGTLVTVSS
# VL: QSVLTQPPSVSGAPGQRVTISCTGSSSNIGAGYDVHWYQQLPGTAPKLLIYGNSNRPSGVPDRFSGSKSGTSASLAITGLQAEDEADYYCQSYDSSLSGVVFGGGTKLTVL
# B12: antibody 510 (antibody, V domains shown)
# VH: QVQLQESGPGLVKPSQTLSLTCTVSGGSISSGSYYWSWIRQPAGKGLEWIGRIYTSGSTNYNPSLKSRVTISVDTSKNQFSLKLSSVTAADTAVYYCAREGQWLYRFDYWGQGTLVTVSS
# VL: QSALTQPASVSGSPGQSITISCTGTSSDVGNYDLVSWYQQHPGKAPKLVIYGVTKRPSGVSNRFSGSKSGNTASLTISGLQAEDEADYYCCSYATGDTSVFGTGTKVTVL
# B13: antibody 391 (antibody, V domains shown)
# VH: EVQLVESGGGLVQPGGSLRLSCAASGFTFSSYWMHWVRQAPGKGLVWVSRINSDGSSTSYADSVKGRFTISRDNAKNTLYLQMNSLRAEDTAVYYCALGPLDIVGSYYYYGMDVWGQGTTVTVSS
# VL: NFMLTQPHSVSESPGKTVTISCTGSSGSIASNYVQWYQQRPGSAPTTVIYEDNQRPSGVPDRFSGSIDSSSNSASLTISGLKTEDEADYYCQSYDSSNQDVVFGGGTKLTVL
# B14: antibody 399 (antibody, V domains shown)
# VH: QVQLVQSGAEVKKPGASVKVSCKASGYTFTSYGISWVRQAPGQGLEWMGWISAYNGNTNYAQKLQGRVTMTTDTSTSTAYMELRSLRSDDTAVYYCARDSGYDWAGGHYYYYGMDVWGQGTTVTVSS
# VL: B1 VL with Y100V, T104G, V108L
# B15: antibody 368 (antibody, V domains shown)
# V domain 1: QITLKESGPTLVKPTETLTLTCAFSGFSLTKTGEAAGWIRQAPGRALEWVTVIFWDDDKRYSPSLQNRLTVTKDTSKNVVVLTMTNVDPVDTATYFCWAMGGPGKEFFGQGTRVAVSS
# V domain 2: QSVLTQPPSVSGAPGQRVTVSCTGTSSSIGPYSDVHWYQHIPGKAPRLLIFGTSNRPSGVPARFSGSKSGSSASLVIAGLQAEDEADYYCQSYDSSLGEIYVFGTGTTVTVL
# B16: antibody 394 (antibody, V domains shown)
# VH: QVQLVQSGAEVKKPGASVKVSCKASGYTFTGYYMHWVRQAPGQGLEWMGWINPNNGGTNSAQKFQGRVTMTRDTSISTAYMELNRLRSDDTAVYYCARDITTTAGTDYYYGMDVWGQGTTVTVSS
# VL: B3 VL with A39P, Y48C, R54P, S96Y, V97I, G101T, L105V
# B17: antibody 397 (antibody, V domains shown)
# VH: QVQLVESGGGVVQPGRSLRLSCAASGFTFSSYGMHWVRQAPGKGLESVAVISYDGSNKYYADSVKGRFTISRDNSKNTLYLQMNSLRAEDTAVYYCAKEGQWELQGNAFDIWGQGTMVTVSS
# VL: B3 VL with A39P, R54P, A90G, S96Y, V97R
# B18: antibody 387 (antibody, V domains shown)
# VH: B7 VH with G100D, I101T, L102K, W103N, W104Y, W105G, W106D, G107L, Y108D, F109I
# VL: SYELTQPSSVSVSPGQTARITCSGDVLAKKYARWFQQKPGQAPVLVIYKDSERPSGIPERFSGSSSGTTVTLTISGAQVEDEADYYCYSAADNNLGVFGGGTKLTVL
# B19: antibody 370 (antibody, V domains shown)
# VH: QVQLVESGGGVVPPGRSLSLPCAASGFTFSAYAMHWLRQAPGKGLEWVAVISYDGTVKYVADSVRGRFTISRDNSNNTLYLQMTSLRSDDTAVYYCARDLGALAAAPTVYFVHWGQGTLVTVSS
# VL: SYVLTQPPSVSVAPGKTATITCAGEDIGRKSVHWYQQKPGQAPVLVIFYYSDRPSGIPDRFSGSVSGNTATLTIGRVEAGDEADYFCQVWDRTTNHVIFGGGTKVTVL
# B20: antibody 401 (antibody, V domains shown)
# VH: QVQLVQSGAEVKKPGSSVKVSCKASGGTFSSYAISWVRQAPGQGLEWMGRIIPILGIANYAQKFQGRVTIIADKSTSTAYMELSSLRSEDKAVYYCAREGKSDSSSALWYFDLWGRGTLVTVSP
# VL: not shown
# B21: antibody 381 (antibody, V domains shown)
# VH: QVQLVESGGGVVQPGRSLRLSCAASGFTFSSYAMHWVRQAPGKGLEWVAVISYDGSNKYYADSVKGRFTISRDNSKNTLYLQMNSLRAEDTAVYYCARDRQYYDILTGYYLPTSEYYFDYWGQGTLVTVSS
# VL: B10 VL with D28G, R31S, R65S, E70D, L71F, F87Y, Y92N, F96P
# Biological target: SARS-CoV-2 full length spike protein, D614G mutant (SARS-CoV-2, UniProt P0DTC2 14-1273)
row,Binder,"median fluorescence intensity, fold over isotype control"
1,B1,8.03 fold over isotype
2,B2,6.88 fold over isotype

# Biological target: SARS-CoV-2 full length spike protein, V483A mutant, expressed on CHO cells (SARS-CoV-2, UniProt P0DTC2 14-1273)
row,Binder,"median fluorescence intensity, fold over isotype control"
1,B3,14.1 fold over isotype
2,B4,12.6 fold over isotype
3,B5,2.47 fold over isotype
4,B6,23.9 fold over isotype
5,B7,7.71 fold over isotype
6,B8,10.7 fold over isotype
7,B9,11.4 fold over isotype
8,B10,22.2 fold over isotype
9,B11,20.2 fold over isotype
10,B12,1.06 fold over isotype

# Biological target: SARS-CoV-2 full length spike protein, D614G mutant, expressed on CHO cells (SARS-CoV-2, UniProt P0DTC2 14-1273)
row,Binder,median fluorescence fold over isotype control
1,B13,35.6 fold over isotype
2,B14,70.1 fold over isotype
3,B15,64.3 fold over isotype
4,B16,63.4 fold over isotype
5,B17,7.97 fold over isotype
6,B18,15.9 fold over isotype
7,B19,9.47 fold over isotype
8,B20,8.76 fold over isotype
9,B21,67.9 fold over isotype

# Biological target: SARS-CoV-2 full length spike protein, V367F mutant, expressed on CHO cells (SARS-CoV-2, UniProt P0DTC2 14-1273)
row,Binder,median fluorescence fold over isotype control
1,B13,18.8 fold over isotype
2,B14,30.6 fold over isotype
3,B15,31.6 fold over isotype
4,B16,37.8 fold over isotype
5,B17,32.8 fold over isotype
6,B18,6.69 fold over isotype
7,B19,35.3 fold over isotype
8,B20,35.5 fold over isotype
9,B21,43.6 fold over isotype
